Laboratory results from patent US8653023.

Test system: protein phosphatase 2A (PP2A), endogenous, in N27 cell lysate

For recombinant pure PKCδ, the “32P-kinase assay: phosphorylation of immunoprecipitated PP2A” value was “PP2A immunoprecipitated from N27 cells was effectively phosphorylated by PKCδ immunoprecipitates as well as by recombinant pure PKCδ”.
